The nature of this series: soluble on expression in E. coli; label from the status in PepcDB or PDB records.
Turning to “MNYYGTSMWASDNNTASNSDSSLNLLGILLLASENNKLINNTVLTNLYGVNLMAESTGIGDKTGPSENILASNIISYNLGTGILFDESYGNLIYNNSFDNIWNVEDESLNTWNSSEIGNYWSDYEGEDADGDGVGDTPYLINSHTGSMDYLPVTRSSDFPELEHHHHHH”, the “soluble on expression in E. coli” value is reported as “not soluble”.

For the sequence “MSRFRSLLQASVNATKKALTWNVEEWVPPAEKHIFKFHSKEDLKKWHLYSDSEYGGLSSASLEIPDKGDGSDCTGVFSGNLSVDLSEGSKWNISRSGFCGMRSKKFDGFIDLDGYDAIALRIRGDGRCYISTIYTENWVNSPGQSEDNSWQAFVFAPKDSWYTAKIPLARYLPTWRGNVIDVEMEMNPGRVLGMSLSVNAEGGAVGAKSGAGDFRVEIDWIKALRLP”, the “soluble on expression in E. coli” value is “soluble”.

Regarding “MSATLPCGMHKCQRLCHKGECLVDEPCKQPCTTPRADCGHPCMAPCHTSSPCPVTACKAKVELQ”, the “soluble on expression in E. coli” value is “soluble”.

Take “MGSDKIHHHHHHMIEQLIQQAQPYWQQYIEHEFVQQLAKGTLPKACFQHYLKQDYLYLFHYSRAFALGVFKAKNFAEMETPRKTLEILCQEIQLHLNYCREWGISEQEIFTTQESAACIAYTRYLLDCGMTGSLAELYAAVTPCALGYAQVARYITQHYPRLPNNPYQTWIDTYASEEFQQAAQETVDFLTALCKPLNPSQLAEIQQIFTTATRMEIAFWQMGLDLA”: the “soluble on expression in E. coli” value is “not soluble”.

For the sequence “MAHHHHHHMPGASDRGTAYVSCRIHCLPACFSRAVVAVCKLTSPAPGIPPLVSLCRYGLPGYSAQEGEAFSAAASGLHPRHQLPFVLSRVAASKAIASLSPDKRAACPGEEDGPAVVFTDRREAAPTLHGCCLSIAHEDSAAASVAWSVPSPDSSSFKDYHAAPERLYMEAQLVCSHSTLPDATATSFAYAIDVVNVAEVHRVRSRFPHFGQRWMPQCTTTASADDVGRALTCVQKQHQECVAAVGAPGGSHGGEGVSACQAACRRDEWWKHLVTPYVTEADAYAAVVLAQHWGVRECAVKLVGIPGRSFAYECVRALPPRGGAVVTESTPFTASFLMSHTLYSAEVHGAEAATLAQQRLHPLLYLYTWTEWVPLNSTVDLPYVVVLACAPCRSDAR”, the “soluble on expression in E. coli” value was “not soluble”.

With “MSEEKPLKVSYSKQFVRDLTDLAKRSPNVLIGSKYITAIHCLLNRLPLPENYQDHALVGEWKGYRDCHIQGDLVLIYQYVIQDEFDELKFSRLNIHSQTALK”, the “soluble on expression in E. coli” value is recorded as “not soluble”.

On to “MTKAETSIGVFYVSEYGYSDRLAQAIINGITKTGVGVDVVDLGAAVDLQELRELVGRCTGLVIGMSPAASAASIQGALSTILGSVNEKQAVGIFETGGGDDEPIDPLLSKFRNLGLTTAFPAIRIKQTPTENTYKLCEEAGTDLGQWVTRDRSIKAMKSLGLEHHHHHH”, for which the “soluble on expression in E. coli” value is “soluble”.

Regarding “MFVKNVNFYYRQILEKFENSYFAEDLTKVIIGIDCDYLDANELSFSEFKAKYYEALSKNKICDFAGFFGVFSANFVSLFEKIPLSSKKNYDFPLFLFANAKAYLIYEKNSKMFFKFGASKYFEYLKDDIEPMKKKQKNDFEILNSLEDEKNDFLKMCEKAKEYLLSGDIFQVVLSKQLCIKHQVNAFDYYESLSALNPSAYMFYFPSKYGVVLGSSPEFLLKIKKREIYLAPIAGTRNLENNCDLLALEKDLLSDEKELSEHKMLVDLARNDASKFGTQTRVENLFSIIKNKFVMHIVSEVYANMKEDASIFDVIEAVFPAGTLSGAPKIRALEITSELEDCDRGIYGGAVGFLNFNEDITLAILIRCAFFTQDKAYLASGAGIVLQSESQKEYAEICAKRKALLVAFENLKKENQ”, the “soluble on expression in E. coli” value was “not soluble”.

Consider “MGNKITVEVTVYAAIEKVWKYWNEPAHIMKWCQASPEWHVPAAQNDLKAGGTFTTTMAAKDGSMSFDFGGVYDQVKTNDLIEYTIGDGRKVRIVFTHTGDTTNIVESFDPEETNPRELQQSGWQAILNSFKSYTENNLEHHHHHH”, for which the “soluble on expression in E. coli” value is listed as “soluble”.

As for “MAAKWEKLEGNVGVLTIEVDAKEVNNSIDAAFKKVVKTINVPGFRKGKMPRPLFEQRFGIESLYQDALDIILPKAYGEAIDEAGIFPVAHPEIDIEKFEKNANLIFTAKVTVKPEVKLGEYKGLAVEKVETTVTDEDVENELKSLQERQAELVVKEEGTVENGDTAVIDFEGFVDGEAFEGGKGENYSLAIGSGTFIPGFEEQVIGLKSGESKDVEVSFPEEYHAAELAGKPATFKVTVHEIKTKELPELNDEFAKEADEAVATLDELKAKLRTNLEEGKKHEAEHKVRDEVVELAAANAEIDIPEAMIDTELDRMVREFEQRLSQQGMNLELYYQFTGTDADKLKEQMKEDAQKRVRINLVLEAIIEAENIEVTEEEVTAEVEKMAEMYGMPVDAIKQALGSVDALAEDLKVRKAVDFLVENAA”, the “soluble on expression in E. coli” value is listed as “not soluble”.

Take “GMEPTRKRKSAGGKPKGKGGWGDRKSGGWRGDHKPSKEGFGGKTRGEGFKKEGFKRDGFKKTGEGFKGKRKAGDSFAGKGERRYKDR”: the “soluble on expression in E. coli” value is recorded as “not soluble”.

As for “MCVKVACVGGGPAGLYLSILLKRQDPAHDVTVYERDPEGSTYGWGVTYWRGLLDRLRELDPGSARAVEEHSVRWRDGVAHVGGLATRHHGDEGFGIGRHRLLAILAARARELGVRLEFEHPVTGANPPAADLVVAADGAGSALRTHHADHFGTEITGGRDHYVWLGTTKVFDAFTFAFVETDHGWIWAYGYGFGPEGSTCVVECAPGTWTGLGLDRADEAEGLGLLEKLFADVLDGHPLSARSSGRASAAWPVFRTLTNRTWSRDNLVLLGDAAHTTHYSIGAGTTLALEDAMALATALRERDTLPDALAHYERERRAALLPVQSAARLSAQWYENLPRYIHLPPEQMFALLGQRHSPLLPHLPPRLYYRIDRAAGRLETLRRVKRRLGPVIARTVQARRLAAGDGRARSGRPDAVPAHRGLEHHHHHH”, the “soluble on expression in E. coli” value is “not soluble”.

Take “MKLIAVLNLLNQLSNKNSLEEYLNGVIDFLSGWTGCENIGIRVLREAGLAPYVVHRGFDKDFIASESCISVEGDECVCLRVLKQQFKSEDQDHISAAGTYYAPNFYRYVEELREDQLLNFRGLCAHKQFKSLAVIPLLHQGKVVGAIHIADIKDGVFSEEDIHFIETIRPLVAEAIYRHNLEKALEHHHHHH”: the “soluble on expression in E. coli” value is listed as “not soluble”.

Regarding “MNLGQTLVGIATWPARAGLAAADTGLNMAGAAVDMAKQALGDAGGASGSTSMANMLGIDDTIARANRLARLLDDDMPLGRAIAPNGPMDRMLRPGGVVDLLTQPGGLLDRLTAEGGAMQRALQPGGLADQLLAEDGLIERVLSEDGLADRLLAEGGLIDKITAKDGPLEQLADVADTLARLTPGMEALEPAIATLQDAVIALTMVVNPLSSIAERIPLPGRRPARRSSSRSVRSQRVVDSE”, the “soluble on expression in E. coli” value is “not soluble”.

“MNQTLLSSFGTPFERVENALAALREGRGVMVLDDEDRENEGDMIFPAETMTVEQMALTIRHGSGIVCLCITEDRRKQLDLPMMVENNTSAYGTGFTVTIEAAEGVTTGVSAADRITTVRAAIADGAKPSDLNRPGHVFPLRAQAGGVLTRGGHTEATIDLMTLAGFKPAGVLCELTNDDGTMARAPECIEFANKHNMALVTIEDLVAYRQAHERKAS”: the “soluble on expression in E. coli” value was “soluble”.

In the case of “MRGSHHHHHHGSMSQPDATPFDYILSGGTVIDGTNAPGRLADVGVRGDRIAAVGDLSASSARRRIDVAGKVVSPGFIDSHTHDDNYLLKHRDMTPKISQGVTTVVTGNCGISLAPLAHANPPAPLDLLDEGGSFRFARFSDYLEALRAAPPAVNAACMVGHSTLRAAVMPDLRREATADEIQAMQALADDALASGAIGISTGAFYPPAAHASTEEIIEVCRPLITHGGVYATHMRDEGEHIVQALEETFRIGRELDVPVVISHHKVMGKLNFGRSKETLALIEAAMASQDVSLDAYPYVAGSTMLKQDRVLLAGRTLITWCKPYPELSGRDLEEIAAERGKSKYDVVPELQPAGAIYFMMDEPDVQRILAFGPTMIGSDGLPHDERPHPRLWGTFPRVLGHYSRDLGLFPLETAVWKMTGLTAAKFGLAERGQVQPGYYADLVVFDPATVADSATFEHPTERAAGIHSVYVNGAAVWEDQSFTGQHAGRVLNRAGA”, the “soluble on expression in E. coli” value is recorded as “soluble”.

The values above are taken from the DeepSol protein solubility set.
